Experimental data from the supplement of paper PMC11316812.
± gives the standard deviation of the averaged measurements.

Experiments:
MCF7 = test: percentage of EdU-negative (G0-arrested) nuclei per well, 72 h; higher = more G0 arrest; settings: reference: sequence is the full UniProt precursor, the tested protein was the secreted form or ectodomain
hTERT-HMEC = test: as above; settings: reference: sequence is the full UniProt precursor, the tested protein was the secreted form or ectodomain
[1] = protein concentration 0.0225 µM
[2] = protein concentration 0.0175 µM
[3] = protein concentration 0.0126825 µM
[4] = protein concentration 0.126825 µM
[5] = protein concentration 0.01625 µM
[6] = protein concentration 0.1625 µM
[7] = protein concentration 0.0155 µM
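Note: secreted proteins added to cultured cells, EdU pulse at the end, nuclei found by Hoechst imaging, EdU status from nuclear versus surrounding ring intensity ratio, PBS as neutral control.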

## MQRVSGLLSWTLSRVLWLSGLSEPGAARQPRIMEEKALEVYDLIRTIRDPEKPNTLEELEVVSESCVEVQEINEEEYLVIIRFTPTVPHCSLATLIGLCLRVKLQRCLPFKHKLEIYISEGTHSTEEDINKQINDKERVAAAMENPNLREIVEQCVLEPD [Q9H5X1]
MCF7; [1]
  percentage of EdU-negative: 24.6 ± 0.36%
MCF7; protein concentration 0.225 µM
  percentage of EdU-negative: 26.4 ± 0.66%
hTERT-HMEC; [1]
  percentage of EdU-negative: 5.26 ± 0.84%
hTERT-HMEC; protein concentration 0.225 µM
  percentage of EdU-negative: 5.56 ± 0.12%

## MQSVQSTSFCLRKQCLCLTFLLLHLLGQVAATQRCPPQCPGRCPATPPTCAPGVRAVLDGCSCCLVCARQRGESCSDLEPCDESSGLYCDRSADPSNQTGICTAVEGDNCVFDGVIYRSGEKFQPSCKFQCTCRDGQIGCVPRCQLDVLLPEPNCPAPRKVEVPGECCEKWICGPDEEDSLGGLTLAAYRPEATLGVEVSDSSVNCIEQTTEWTACSKSCGMGFSTRVTNRNRQCEMLKQTRLCMVRPCEQEPEQPTDKKGKKCLRTKKSLKAIHLQFKNCTSLHTYKPRFCGVCSDGRCCTPHNTKTIQAEFQCSPGQIVKKPVMVIGTCTCHTNCPKNNEAFLQELELKTTRGKM
MCF7; [2]
  percentage of EdU-negative: 26.6 ± 2.9%
MCF7; protein concentration 0.175 µM
  percentage of EdU-negative: 26.7 ± 4.2%
hTERT-HMEC; [2]
  percentage of EdU-negative: 4.53 ± 0.15%
hTERT-HMEC; protein concentration 0.175 µM
  percentage of EdU-negative: 15.1 ± 2.2%

## MQVSKRMLAGGVRSMPSPLLACWQPILLLVLGSVLSGSATGCPPRCECSAQDRAVLCHRKRFVAVPEGIPTETRLLDLGKNRIKTLNQDEFASFPHLEELELNENIVSAVEPGAFNNLFNLRTLGLRSNRLKLIPLGVFTGLSNLTKLDISENKIVILLDYMFQDLYNLKSLEVGDNDLVYISHRAFSGLNSLEQLTLEKCNLTSIPTEALSHLHGLIVLRLRHLNINAIRDYSFKRLYRLKVLEISHWPYLDTMTPNCLYGLNLTSLSITHCNLTAVPYLAVRHLVYLRFLNLSYNPISTIEGSMLHELLRLQEIQLVGGQLAVVEPYAFRGLNYLRVLNVSGNQLTTLEESVFHSVGNLETLILDSNPLACDCRLLWVFRRRWRLNFNRQQPTCATPEFVQGKEFKDFPDVLLPNYFTCRRARIRDRKAQQVFVDEGHTVQFVCRADGDPPPAILWLSPRKHLVSAKSNGRLTVFPDGTLEVRYAQVQDNGTYLCIAANAGGNDSMPAHLHVRSYSPDWPHQPNKTFAFISNQPGEGEANSTRATVPFPFDIKTLIIATTMGFISFLGVVLFCLVLLFLWSRGKGNTKHNIEIEYVPRKSDAGISSADAPRKFNMKMI [Q96FE5]
MCF7; [3]
  percentage of EdU-negative: 23.8 ± 3%
MCF7; [4]
  percentage of EdU-negative: 28.9 ± 0.74%
hTERT-HMEC; [3]
  percentage of EdU-negative: 4.72 ± 0.26%
hTERT-HMEC; [4]
  percentage of EdU-negative: 4.37 ± 0.16%

## MQVSTAALAVLLCTMALCNQFSASLAADTPTACCFSYTSRQIPQNFIADYFETSSQCSKPGVIFLTKRSRQVCADPSEEWVQKYVSDLELSA
MCF7; [5]
  percentage of EdU-negative: 25.6 ± 0.31%
MCF7; [6]
  percentage of EdU-negative: 25.3 ± 0.67%
hTERT-HMEC; [5]
  percentage of EdU-negative: 4.43 ± 0.47%
hTERT-HMEC; [6]
  percentage of EdU-negative: 5.62 ± 0.9%

## MQWLRVRESPGEATGHRVTMGTAALGPVWAALLLFLLMCEIPMVELTFDRAVASGCQRCCDSEDPLDPAHVSSASSSGRPHALPEIRPYINITILKGDKGDPGPMGLPGYMGREGPQGEPGPQGSKGDKGEMGSPGAPCQKRFFAFSVGRKTALHSGEDFQTLLFERVFVNLDGCFDMATGQFAAPLRGIYFFSLNVHSWNYKETYVHIMHNQKEAVILYAQPSERSIMQSQSVMLDLAYGDRVWVRLFKRQRENAIYSNDFDTYITFSGHLIKAEDD [Q9BXI9]
MCF7; [1]
  percentage of EdU-negative: 26.9 ± 1.5%
MCF7; protein concentration 0.225 µM
  percentage of EdU-negative: 29.5 ± 1.2%
hTERT-HMEC; [1]
  percentage of EdU-negative: 4.57 ± 0.33%
hTERT-HMEC; protein concentration 0.225 µM
  percentage of EdU-negative: 4.82 ± 1.2%

## MQWTSLLLLAGLFSLSQAQYEDDPHWWFHYLRSQQSTYYDPYDPYPYETYEPYPYGVDEGPAYTYGSPSPPDPRDCPQECDCPPNFPTAMYCDNRNLKYLPFVPSRMKYVYFQNNQITSIQEGVFDNATGLLWIALHGNQITSDKVGRKVFSKLRHLERLYLDHNNLTRMPGPLPRSLRELHLDHNQISRVPNNALEGLENLTALYLQHNEIQEVGSSMRGLRSLILLDLSYNHLRKVPDGLPSALEQLYMEHNNVYTVPDSYFRGAPKLLYVRLSHNSLTNNGLASNTFNSSSLLELDLSYNQLQKIPPVNTNLENLYLQGNRINEFSISSFCTVVDVVNFSKLQVLRLDGNEIKRSAMPADAPLCLRLASLIEI
MCF7; [7]
  percentage of EdU-negative: 25.8 ± 0.27%
MCF7; protein concentration 0.155 µM
  percentage of EdU-negative: 30.9 ± 1.2%
hTERT-HMEC; [7]
  percentage of EdU-negative: 4.701 ± 0.032%
hTERT-HMEC; protein concentration 0.155 µM
  percentage of EdU-negative: 5.63 ± 0.63%

## MRAAGTLLAFCCLVLSTTGGPSPDTCSQDLNSRVKPGFPKTIKTNDPGVLQAARYSVEKFNNCTNDMFLFKESRITRALVQIVKGLKYMLEVEIGRTTCKKNQHLRLDDCDFQTNHTLKQTLSCYSEVWVVPWLQHFEVPVLRCH
MCF7; [1]
  percentage of EdU-negative: 27.2 ± 0.74%
MCF7; protein concentration 0.225 µM
  percentage of EdU-negative: 27.2 ± 1.1%
hTERT-HMEC; [1]
  percentage of EdU-negative: 4.61 ± 0.72%
hTERT-HMEC; protein concentration 0.225 µM
  percentage of EdU-negative: 4.863 ± 0.024%
